Results published in ChEMBL document CHEMBL1649237, “IND-6, a highly divergent IND-type metallo-beta-lactamase from Chryseobacterium indologenes strain 597 isolated in Burkina Faso” (2009).

Assays:
[1] = substrate: CC(=O)OCC1=C(C(=O)O)N2C(=O)[C@@H](NC(=O)Cc3cccs3)[C@H]2SC1; assay: (§1) Activity at Chryseobacterium indologenes 597 metallo-beta-lactamase IND-6 expressed in Escherichia coli DH5alpha by Michaelis-Menten equation
[2] = substrate: CC(C)(O/N=C(\C(=O)N[C@@H]1C(=O)N2C(C(=O)[O-])=C(C[n+]3ccccc3)CS[C@H]12)c1csc(N)n1)C(=O)O; assay: as §1
[3] = substrate: CC1(C)S[C@@H]2[C@H](NC(=O)C(C(=O)O)c3ccccc3)C(=O)N2[C@H]1C(=O)O; assay: as §1
[4] = substrate: CC1(C)S[C@@H]2[C@H](NC(=O)Cc3ccccc3)C(=O)N2[C@H]1C(=O)O; assay: as §1
[5] = substrate: CC1(C)S[C@@H]2[C@H](NC(=O)[C@H](N)c3ccc(O)cc3)C(=O)N2[C@H]1C(=O)O; assay: as §1
[6] = substrate: CC1=C(C(=O)O)N2C(=O)[C@@H](NC(=O)[C@H](N)c3ccccc3)[C@H]2SC1; assay: as §1
[7] = substrate: CO/N=C(\C(=O)N[C@@H]1C(=O)N2C(C(=O)O)=C(COC(C)=O)CS[C@H]12)c1csc(N)n1; assay: as §1
[8] = substrate: CO/N=C(\C(=O)N[C@@H]1C(=O)N2C(C(=O)O)=C(COC(N)=O)CS[C@H]12)c1ccco1; assay: as §1
[9] = substrate: CO/N=C(\C(=O)N[C@@H]1C(=O)N2C(C(=O)[O-])=C(C[N+]3(C)CCCC3)CS[C@H]12)c1csc(N)n1; assay: as §1
[10] = substrate: C[C@@H](O)[C@H]1C(=O)N2C(C(=O)O)=C(SCCNC=N)C[C@H]12; assay: as §1
[11] = substrate: C[C@@H](O)[C@H]1C(=O)N2C(C(=O)O)=C(S[C@@H]3CN[C@H](C(=O)N(C)C)C3)[C@H](C)[C@H]12; assay: as §1
[12] = substrate: O=C(Cc1cccs1)N[C@@H]1C(=O)N2C(C(=O)O)=C(/C=C/c3ccc([N+](=O)[O-])cc3[N+](=O)[O-])CS[C@H]12; assay: as §1
[13] = substrate: O=C(Cc1cccs1)N[C@@H]1C(=O)N2C(C(=O)[O-])=C(C[n+]3ccccc3)CS[C@H]12; assay: as §1
[14] = substrate: CC(=O)OCC1=C(C(=O)O)N2C(=O)[C@@H](NC(=O)Cc3cccs3)[C@H]2SC1; assay: (§2) Ratio of Kcat to Km for Chryseobacterium indologenes 597 metallo-beta-lactamase IND-6 expressed in Escherichia coli DH5alpha by Michaelis-Menten equation
[15] = substrate: CC(C)(O/N=C(\C(=O)N[C@@H]1C(=O)N2C(C(=O)[O-])=C(C[n+]3ccccc3)CS[C@H]12)c1csc(N)n1)C(=O)O; assay: as §2
[16] = substrate: CC1(C)S[C@@H]2[C@H](NC(=O)C(C(=O)O)c3ccccc3)C(=O)N2[C@H]1C(=O)O; assay: as §2
[17] = substrate: CC1(C)S[C@@H]2[C@H](NC(=O)Cc3ccccc3)C(=O)N2[C@H]1C(=O)O; assay: as §2
[18] = substrate: CC1(C)S[C@@H]2[C@H](NC(=O)[C@H](N)c3ccc(O)cc3)C(=O)N2[C@H]1C(=O)O; assay: as §2
[19] = substrate: CC1=C(C(=O)O)N2C(=O)[C@@H](NC(=O)[C@H](N)c3ccccc3)[C@H]2SC1; assay: as §2
[20] = substrate: CO/N=C(\C(=O)N[C@@H]1C(=O)N2C(C(=O)O)=C(COC(C)=O)CS[C@H]12)c1csc(N)n1; assay: as §2
[21] = substrate: CO/N=C(\C(=O)N[C@@H]1C(=O)N2C(C(=O)O)=C(COC(N)=O)CS[C@H]12)c1ccco1; assay: as §2
[22] = substrate: CO/N=C(\C(=O)N[C@@H]1C(=O)N2C(C(=O)[O-])=C(C[N+]3(C)CCCC3)CS[C@H]12)c1csc(N)n1; assay: as §2
[23] = substrate: C[C@@H](O)[C@H]1C(=O)N2C(C(=O)O)=C(SCCNC=N)C[C@H]12; assay: as §2
[24] = substrate: C[C@@H](O)[C@H]1C(=O)N2C(C(=O)O)=C(S[C@@H]3CN[C@H](C(=O)N(C)C)C3)[C@H](C)[C@H]12; assay: as §2
[25] = substrate: O=C(Cc1cccs1)N[C@@H]1C(=O)N2C(C(=O)O)=C(/C=C/c3ccc([N+](=O)[O-])cc3[N+](=O)[O-])CS[C@H]12; assay: as §2
[26] = substrate: O=C(Cc1cccs1)N[C@@H]1C(=O)N2C(C(=O)[O-])=C(C[n+]3ccccc3)CS[C@H]12; assay: as §2
[27] = substrate: CC(=O)OCC1=C(C(=O)O)N2C(=O)[C@@H](NC(=O)Cc3cccs3)[C@H]2SC1; assay: (§3) Ratio of Kcat to Km for Chryseobacterium meningosepticum CCUG 4310 beta-lactamase BlaB1 expressed in Escherichia coli DH5alpha by Michaelis-Menten equation; conditions: Elizabethkingia meningoseptica
[28] = substrate: CC(C)(O/N=C(\C(=O)N[C@@H]1C(=O)N2C(C(=O)[O-])=C(C[n+]3ccccc3)CS[C@H]12)c1csc(N)n1)C(=O)O; assay: as §3; conditions: Elizabethkingia meningoseptica
[29] = substrate: CC1(C)S[C@@H]2[C@H](NC(=O)C(C(=O)O)c3ccccc3)C(=O)N2[C@H]1C(=O)O; assay: as §3; conditions: Elizabethkingia meningoseptica
[30] = substrate: CC1(C)S[C@@H]2[C@H](NC(=O)Cc3ccccc3)C(=O)N2[C@H]1C(=O)O; assay: as §3; conditions: Elizabethkingia meningoseptica
[31] = substrate: CO/N=C(\C(=O)N[C@@H]1C(=O)N2C(C(=O)O)=C(COC(C)=O)CS[C@H]12)c1csc(N)n1; assay: as §3; conditions: Elizabethkingia meningoseptica
[32] = substrate: CO/N=C(\C(=O)N[C@@H]1C(=O)N2C(C(=O)O)=C(COC(N)=O)CS[C@H]12)c1ccco1; assay: as §3; conditions: Elizabethkingia meningoseptica
[33] = substrate: CO/N=C(\C(=O)N[C@@H]1C(=O)N2C(C(=O)[O-])=C(C[N+]3(C)CCCC3)CS[C@H]12)c1csc(N)n1; assay: as §3; conditions: Elizabethkingia meningoseptica
[34] = substrate: C[C@@H](O)[C@H]1C(=O)N2C(C(=O)O)=C(SCCNC=N)C[C@H]12; assay: as §3; conditions: Elizabethkingia meningoseptica
[35] = substrate: C[C@@H](O)[C@H]1C(=O)N2C(C(=O)O)=C(S[C@@H]3CN[C@H](C(=O)N(C)C)C3)[C@H](C)[C@H]12; assay: as §3; conditions: Elizabethkingia meningoseptica
[36] = substrate: O=C(Cc1cccs1)N[C@@H]1C(=O)N2C(C(=O)O)=C(/C=C/c3ccc([N+](=O)[O-])cc3[N+](=O)[O-])CS[C@H]12; assay: as §3; conditions: Elizabethkingia meningoseptica
[37] = substrate: O=C(Cc1cccs1)N[C@@H]1C(=O)N2C(C(=O)[O-])=C(C[n+]3ccccc3)CS[C@H]12; assay: as §3; conditions: Elizabethkingia meningoseptica
[38] = substrate: CC(=O)OCC1=C(C(=O)O)N2C(=O)[C@@H](NC(=O)Cc3cccs3)[C@H]2SC1; assay: (§4) Ratio of Kcat to Km for Chryseobacterium indologenes 597 metallo-beta-lactamase IND-2 expressed in Escherichia coli DH5alpha by Michaelis-Menten equation
[39] = substrate: CC(C)(O/N=C(\C(=O)N[C@@H]1C(=O)N2C(C(=O)[O-])=C(C[n+]3ccccc3)CS[C@H]12)c1csc(N)n1)C(=O)O; assay: as §4
[40] = substrate: CC1(C)S[C@@H]2[C@H](NC(=O)Cc3ccccc3)C(=O)N2[C@H]1C(=O)O; assay: as §4
[41] = substrate: CO/N=C(\C(=O)N[C@@H]1C(=O)N2C(C(=O)O)=C(COC(C)=O)CS[C@H]12)c1csc(N)n1; assay: as §4
[42] = substrate: CO/N=C(\C(=O)N[C@@H]1C(=O)N2C(C(=O)[O-])=C(C[N+]3(C)CCCC3)CS[C@H]12)c1csc(N)n1; assay: as §4
[43] = substrate: C[C@@H](O)[C@H]1C(=O)N2C(C(=O)O)=C(SCCNC=N)C[C@H]12; assay: as §4
[44] = substrate: C[C@@H](O)[C@H]1C(=O)N2C(C(=O)O)=C(S[C@@H]3CN[C@H](C(=O)N(C)C)C3)[C@H](C)[C@H]12; assay: as §4
[45] = substrate: CC1(C)S[C@@H]2[C@H](NC(=O)C(C(=O)O)c3ccccc3)C(=O)N2[C@H]1C(=O)O; assay: (§5) Ratio of Kcat to Km for Chryseobacterium indologenes 597 metallo-beta-lactamase […] expressed in Escherichia coli DH5alpha by Michaelis-Menten equation
[46] = substrate: CC1(C)S[C@@H]2[C@H](NC(=O)Cc3ccccc3)C(=O)N2[C@H]1C(=O)O; assay: as §5
[47] = substrate: CO/N=C(\C(=O)N[C@@H]1C(=O)N2C(C(=O)O)=C(COC(C)=O)CS[C@H]12)c1csc(N)n1; assay: as §5
[48] = substrate: C[C@@H](O)[C@H]1C(=O)N2C(C(=O)O)=C(SCCNC=N)C[C@H]12; assay: as §5
[49] = substrate: C[C@@H](O)[C@H]1C(=O)N2C(C(=O)O)=C(S[C@@H]3CN[C@H](C(=O)N(C)C)C3)[C@H](C)[C@H]12; assay: as §5

B1: Metallo-beta-lactamase IND-6 (Chryseobacterium indologenes), Q08I33 (protein)
chain: MKRRIQFFMVSMMLTPLFSAQVKDFVIEPPIKKNLYIYKTFGVFGGKEYSANSVYLVTKTGVVLFDVPWEKAQYQSLMDTIKKRHNLPVVAVFATHSHDDRAGDLSFFNNKGIKTYATPKTNQFLKRDGKATSTELIKPGKPYRFGGEEFVVDFLGEGHTADNVVVWFPKYKVLDGGCLVKSNSATDLGYIKEANLEQWPKTMHKLKTKYSEAVLIIPGHDEWKGGGHVEHTLELLDKK
Km [1]: 60 µM | kcat [1]: 415 s⁻¹ | Km [2]: 22 µM | kcat [2]: 6 s⁻¹ | Km [3]: 30 µM | kcat [3]: 210 s⁻¹ | Km [4]: 20 µM | kcat [4]: 305 s⁻¹ | Km [5]: 85 µM | kcat [5]: 480 s⁻¹ | Km [6]: 3 µM | kcat [6]: 19 s⁻¹ | Km [7]: 33 µM | kcat [7]: 8 s⁻¹ | Km [8]: 23 µM | kcat [8]: 75 s⁻¹ | Km [9]: > 300 µM | kcat [9]: > 1.2 s⁻¹ | Km [10]: 13 µM | kcat [10]: 50 s⁻¹ | Km [11]: 145 µM | kcat [11]: 25 s⁻¹ | Km [12]: 43 µM | kcat [12]: 115 s⁻¹ | Km [13]: 90 µM | kcat [13]: 490 s⁻¹ | kcat/Km [14]: 6.9 ×10⁶ /M/s | kcat/Km [15]: 2.7 ×10⁵ /M/s | kcat/Km [16]: 7 ×10⁶ /M/s | kcat/Km [17]: 1.5 ×10⁷ /M/s | kcat/Km [18]: 5.6 ×10⁶ /M/s | kcat/Km [19]: 6.3 ×10⁶ /M/s | kcat/Km [20]: 2.4 ×10⁵ /M/s | kcat/Km [21]: 3.3 ×10⁶ /M/s | kcat/Km [22]: 4 ×10³ /M/s | kcat/Km [23]: 3.8 ×10⁶ /M/s | kcat/Km [24]: 1.7 ×10⁵ /M/s | kcat/Km [25]: 2.7 ×10⁶ /M/s | kcat/Km [26]: 5.4 ×10⁶ /M/s

B2: Metallo-beta-lactamase type 2 (Flavobacterium meningosepticum), O08498 (protein)
chain: MLKKIKISLILALGLTSLQAFGQENPDVKIEKLKDNLYVYTTYNTFNGTKYAANAVYLVTDKGVVVIDCPWGEDKFKSFTDEIYKKHGKKVIMNIATHSHDDRAGGLEYFGKIGAKTYSTKMTDSILAKENKPRAQYTFDNNKSFKVGKSEFQVYYPGKGHTADNVVVWFPKEKVLVGGCIIKSADSKDLGYIGEAYVNDWTQSVHNIQQKFSGAQYVVAGHDDWKDQRSIQHTLDLINEYQQKQKASN
kcat/Km [27]: 1.6 ×10⁶ /M/s | kcat/Km [28]: 6.6 ×10³ /M/s | kcat/Km [29]: 6.1 ×10⁶ /M/s | kcat/Km [30]: 2.7 ×10⁷ /M/s | kcat/Km [31]: 7.9 ×10⁵ /M/s | kcat/Km [32]: 1 ×10⁶ /M/s | kcat/Km [33]: 2 ×10² /M/s | kcat/Km [34]: 2 ×10⁶ /M/s | kcat/Km [35]: 7.6 ×10⁵ /M/s | kcat/Km [36]: 3.9 ×10⁶ /M/s | kcat/Km [37]: 1.4 ×10⁵ /M/s

B3: Metallo-beta-lactamase IND-2 (Chryseobacterium indologenes), Q9F923 (protein)
chain: MKKSIQLLMMSMFLSPLINAQVKDFVIEPPVKPNLYLYKSFGVFGGKEYSANAVYLTTKKGVVLFDVPWQKEQYQTLMDTIQKRHHLPVIAVFATHSHDDRAGDLSFYNQKGIKTYATAKTNELLKKDGKATSTEIIKTGKPYKIGGEEFMVDFLGEGHTVDNVVVWFPKYKVLDGGCLVKSRTATDLGYTGEANVKQWPETMRKLKTKYAQATLVIPGHDEWKGGGHVQHTLDLLDKN
kcat/Km [38]: 1.2 ×10⁶ /M/s | kcat/Km [39]: 4.5 ×10³ /M/s | kcat/Km [40]: 4.6 ×10⁶ /M/s | kcat/Km [41]: 9 ×10⁵ /M/s | kcat/Km [42]: 4.5 ×10² /M/s | kcat/Km [43]: 5.9 ×10⁵ /M/s | kcat/Km [44]: 1.8 ×10⁵ /M/s

B4: IND-like metallo-beta-lactamase (Chryseobacterium indologenes), Q6JE29 (protein)
chain: MKKRIQFFMVSMMLAPMFNAQVKDFVIEPPIKNNLHIYKTFGVFGGKEYSANSVYLVTKKGVVLFDVPWEKAQYQSLMDTIKKRHNLPVIAVFATHSHDDRAGDLSFFNNKGIKTYATSKTNEFLKKDGKATSTEIIKTGKPYRIGGEEFTVDFLGEGHTADNVVVWFPKYNVLDGGCLVKSNSATDLGYIKEANVEQWPITIDKLKAKYSKATLIIPGHDDWKGGGHVEHTLELLNKK
kcat/Km [45]: 5.3 ×10⁴ /M/s | kcat/Km [46]: 8.4 ×10⁵ /M/s | kcat/Km [47]: 3.1 ×10⁴ /M/s | kcat/Km [48]: 2.4 ×10⁴ /M/s | kcat/Km [49]: 1.5 ×10⁴ /M/s
